Measured values reported in PMC6318002 (Nature, 2018).

Target: the molecule itself
Experiment: cross-linking

B1: recombinant PKM2-C423/424A (enzyme)
chain: not shown
stoichiometry N: 4
